This assay addresses HA1-trimer (influenza A virus H1N1 …). Nature of the assay: SPR. Conditions: both partners purified.

B1: 32D6 (antibody, V domains shown)
VH: QVQLQESGPGLVKPSETLSLTCTVSGGSVNTGSYYWSWIRQPPGKGLEWIAYSSVSGTSNYNPSLKSRVTLTVDTSKNQFSLSVRSVTAADTAVYFCARLNYDILTGYYFFDFWGQGTLVIVSS
VL: QVELTQSPSASASLGTSVKLTCTLSSGHSTYAIAWHQQRPGKGPRYLMNLSSGGRHTRGDGIPDRFSGSSSGADRYLIISSLQSEDEADYYCQTWDAGMVFGGGTKLTVL
In the case of B1, the dissociation constant Kd turned out to be 0.0445 nM. That is a picomolar value.

B2: 5J8 (antibody, V domains shown)
VH: EVQLVESGPGLVKPSDILSLTCAVSGYSISSNYYWGWIRQPPGKGLEWIGSIYHSGSTYYKPSLESRLGISVDTSKNQFSLKLSFVSAADTAVYYCARHVRSGYPDTAYYFDKWGQGTLVTVSS
VL: SYVLTQPPSVSVAPGETARISCGGNNIGTKVLHWYQQTPGQAPVLVVYDDSDRPSGIPERFSGSNSGNTATLTISRVEVGDEADYYCQVWDISTDQAVFGGGTKLTVL
B2 gave a dissociation constant (Kd) of 0.0531 nM. This Kd and that of the molecule before are within 1.5-fold of each other.

Values taken from article PMC9530591 (eBioMedicine, 2022).
